Data as given in article doi:10.1101/191742.
“And” between values parts separate entries of the source, which are not always exact repeats. Identical values can stand only once. Like-named read-outs stand apart in the source and are kept apart here.

Experiments:
Experiment in all cases: single-molecule diffusometry in an ABEL trap
[1] = target: Nicotiana tabacum Rubisco activase S379C (Nt-Rca-S379C) (Nicotiana tabacum)
[2] = target: Nicotiana tabacum Rubisco activase S379C (Nt-Rca-S379C) (Nicotiana tabacum); remark: listed apart in the source
[3] = target: Nicotiana tabacum Rubisco activase S379C (Nt-Rca-S379C) (Nicotiana tabacum); remark: listed apart in the source
[4] = target: Nicotiana tabacum Rubisco activase S379C (Nt-Rca-S379C) (Nicotiana tabacum); remark: listed apart in the source
[5] = target: Nicotiana tabacum Rubisco activase S379C (Nt-Rca-S379C) (Nicotiana tabacum); remark: listed apart in the source

equilibrium constant for hexamer formation from dimers (Kd 2-4 x Kd 4-6) [1]: 0.2 μM^2 | rate of subunit exchange [1]: 0.1 s⁻¹ | stoichiometry N [1]: 2 | stoichiometry N [2]: 2 | rate of subunit exchange [3]: > 0.2 s⁻¹ | stoichiometry N [4]: 4 and 6 and > 6 | stoichiometry N [5]: 4 and 6
Substance: Nicotiana tabacum Rubisco activase S379C (Nt-Rca-S379C) (enzyme)
